Data as given in patent US20140274901A1, “PROANP COMPOSITIONS AND METHODS FOR TREATING ACUTE HEART FAILURE” (Mayo Foundation for Medical Education and Research, priority 2013, published 2014).
Where two headings read alike, the source gives them in different places. Values belong to the molecule of their own block, whether it stands above or below them.

How the values were obtained:
[1] = Hemodynamic and renal actions after bolus intravenous injection in normal canines; format: in vivo, canine
Description: Blood samples were obtained from aorta and renal vein and urine is obtained before and 2.5, 5, 10, 15, 30, 60, 120, and 180 min after injection.
(§3) The in vivo effects of canine proANP, ANP1-28, and BNP1-32 were examined in normal canines (FIG. 6).

cGMP = assay: Plasma and urinary cGMP after bolus intravenous injection in normal canines; format: in vivo, canine; conditions: for PcGMP AUC / PcGMP Cmax: plasma cGMP; for PcGMP AUC / PcGMP Cmax / UcGMP AUC / UcGMP Cmax: intravenous bolus 667 pmol/kg; for UcGMP AUC / UcGMP Cmax: urinary cGMP excretion
Description: (§1) The samples were ether extracted four times in 4 volumes of ether, dried, and reconstituted in 300 ul cGMP assay buffer, and the cGMP levels were measured using a competitive RIA cGMP kit (Perkin-Elmer, Boston, Mass.).

[2] = Pharmacokinetic analysis of NP immunoreactivity after bolus intravenous injection in normal canines
Description: (§4) Blood samples were obtained from aorta and renal vein and urine is obtained before and 2.5, 5, 10, 15, 30, 60, 120, and 180 min after injection. […] These doses were similar to doses of carperitide/nesiritide in clinical use.
(§5) Canine ANP1-28 and NT-proANP concentrations are determined by specific immunoassays as described elsewhere (Ichiki et al., Clin Chem, 2011, 57:40-47; Ichiki et al., 2012, supra; Chen et al., J Am Coll Cardiol, 2000, 35:240A; and Chen et al., Am J Physiol Regul Integr Comp Physiol, 2005, 288:R1093-1097).
as §3

in vivo = conditions: dog, iv, 667 pmol/kg
Description: as §4, §5, §3

[3] = test system: human cardiac fibroblasts (CFs); assay: cGMP production in human cardiac fibroblasts; format: cell-based; conditions: 10^−7 M
Text: (§2) FIGS. 5A-5D depict proANP effects in vitro. FIG. 5A is a pair of graphs plotting cGMP production in GC-A or GC-B overexpressing HEK293 cells treated with proANP, proBNP, or mature ANP or BNP, as indicated. *p<0.05 vs. non-treated cells. FIG. 5B is a pair of graphs plotting cGMP production in GC-A or GC-B overexpressing HEK293 cells treated with proANP (10^−8 M) in serum or PBS, as indicated. *p<0.05 vs. non-treated cells. †p<0.05 vs. PBS-treated proANP. FIG. 5C is a series of photographs showing immunocytochemistry for collagen type I (Col I), GC-A, and corin in cardiac fibroblasts (CFs). NHS served as a negative control. Magnification is 100×. FIG. 5D is a graph plotting the time course of cGMP production in CFs treated with ANP or proANP (10^−7M). […] Data are mean±SEM.
as §1
Further studies utilized human CFs in which GC-A and proANP convertase corin exist (FIG. 5C).

[4] = Processing and degradation of His-tagged proANP in human serum ex vivo
Description: Exogenous proANP was incubated in human serum at 37° C. Processed and unprocessed proANP peptides were isolated by immunoprecipitation using His-tag beads, followed by detection via Western blotting with 6×His antibody. […] FIG. 4C is a graph plotting densitometric analysis of processed ANP1-28 from proANP that was incubated in serum from normal subjects and HF patients for the indicated times. Values are mean±SEM. *p<0.05 vs. 0 min.

GC-A = target: T1, GC-A (Homo sapiens, UniProt P16066); assay: cGMP production in HEK293 cells overexpressing GC-A; format: cell-based
T1 construct: expressed in transfected cells; host or cells: HEK293
T1 sequence (P16066 33-1061): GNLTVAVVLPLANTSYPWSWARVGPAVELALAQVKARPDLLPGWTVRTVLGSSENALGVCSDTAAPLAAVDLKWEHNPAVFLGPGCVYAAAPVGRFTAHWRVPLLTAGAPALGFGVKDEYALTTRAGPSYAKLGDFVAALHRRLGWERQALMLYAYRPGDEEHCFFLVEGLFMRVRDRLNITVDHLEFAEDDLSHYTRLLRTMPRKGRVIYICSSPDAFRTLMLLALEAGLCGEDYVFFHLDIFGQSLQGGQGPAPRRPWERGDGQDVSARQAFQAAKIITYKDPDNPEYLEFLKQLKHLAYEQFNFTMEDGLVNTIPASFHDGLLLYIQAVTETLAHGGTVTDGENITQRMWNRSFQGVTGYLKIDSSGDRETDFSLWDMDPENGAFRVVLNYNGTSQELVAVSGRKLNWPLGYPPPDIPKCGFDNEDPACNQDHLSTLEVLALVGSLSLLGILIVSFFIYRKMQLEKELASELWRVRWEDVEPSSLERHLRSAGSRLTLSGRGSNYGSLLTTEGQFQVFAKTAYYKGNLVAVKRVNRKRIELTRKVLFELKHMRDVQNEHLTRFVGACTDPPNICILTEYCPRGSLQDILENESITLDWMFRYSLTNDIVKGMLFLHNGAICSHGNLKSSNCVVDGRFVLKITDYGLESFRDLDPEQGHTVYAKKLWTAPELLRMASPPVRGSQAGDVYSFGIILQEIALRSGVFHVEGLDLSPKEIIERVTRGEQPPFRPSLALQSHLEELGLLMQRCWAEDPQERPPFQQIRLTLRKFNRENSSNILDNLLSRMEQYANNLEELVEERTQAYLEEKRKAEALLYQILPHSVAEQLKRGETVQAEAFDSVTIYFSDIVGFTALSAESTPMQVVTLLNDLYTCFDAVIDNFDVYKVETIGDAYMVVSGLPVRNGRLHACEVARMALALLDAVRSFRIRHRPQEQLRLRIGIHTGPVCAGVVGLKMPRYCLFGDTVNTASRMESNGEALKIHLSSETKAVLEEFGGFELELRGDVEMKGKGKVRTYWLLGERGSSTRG
Text: as §2, §1

[5] = 667 pmol/kg intravenous, comparison of the three NPs
[6] = normal canines, 667 pmol/kg intravenous

Molecule: CC[C@H](C)[C@@H]1NC(=O)[C@H](CCCNC(=N)N)NC(=O)[C@H](CC(=O)O)NC(=O)[C@H](CCSC)NC(=O)[C@H](CCCCN)NC(=O)[C@H](CCCNC(=N)N)NC(=O)CNC(=O)[C@H](Cc2ccccc2)NC(=O)[C@@H](NC(=O)CNC(=O)[C@H](CO)NC(=O)CNC(=O)[C@H](CCC(N)=O)NC(=O)[C@@H](NC(=O)[C@H](CCSC)NC(=O)[C@H](CCCCN)NC(=O)[C@@H]2CCCN2C(=O)[C@@H](N)CO)C(C)C)CSSC[C@@H](C(=O)N[C@@H](CCCCN)C(=O)N[C@H](C(=O)N[C@@H](CC(C)C)C(=O)N[C@@H](CCCNC(=N)N)C(=O)N[C@@H](CCCNC(=N)N)C(=O)N[C@@H](Cc2c[nH]cn2)C(=O)O)C(C)C)NC(=O)CNC(=O)[C@H](CC(C)C)NC(=O)CNC(=O)[C@H](CO)NC(=O)[C@H](CO)NC(=O)[C@H](CO)NC(=O)[C@H](CO)NC1=O [BNP, B-type natriuretic peptide, reference compound]
effect on blood pressure (BP) [1, 5]: greatest effect | PcGMP AUC (cGMP): 13406.9 pmol·min/mL | PcGMP Cmax (cGMP): 255.4 pmol/mL | UcGMP AUC (cGMP): 207454 pmol·min/mL | UcGMP Cmax (cGMP): 6936.2 pmol/mL | AUC ([2]; dog, plasma, iv, 667 pmol/kg): 0.0517 nM·h | Cmax ([2]; dog, plasma, iv, 667 pmol/kg): 0.43 nM | Tmax ([2]; dog, plasma, iv, 667 pmol/kg): 2 min | half-life ([2]; dog, plasma, iv, 667 pmol/kg): 3.7 min | decline of plasma immunoreactivity after the peak [2, 6]: decreased rapidly

AUC (in vivo): 0.2 nM·h | Tmax (in vivo): 2 min
Molecule: CC[C@H](C)[C@@H]1NC(=O)[C@H](CCCNC(=N)N)NC(=O)[C@H](CC(=O)O)NC(=O)[C@H](CCSC)NC(=O)[C@H](CCCNC(=N)N)NC(=O)CNC(=O)CNC(=O)[C@H](Cc2ccccc2)NC(=O)[C@@H](NC(=O)[C@H](CO)NC(=O)[C@H](CO)NC(=O)[C@H](CCCNC(=N)N)NC(=O)[C@H](CCCNC(=N)N)NC(=O)[C@H](CC(C)C)NC(=O)[C@@H](N)CO)CSSC[C@@H](C(=O)N[C@@H](CC(N)=O)C(=O)N[C@@H](CO)C(=O)N[C@@H](Cc2ccccc2)C(=O)N[C@@H](CCCNC(=N)N)C(=O)N[C@@H](Cc2ccc(O)cc2)C(=O)O)NC(=O)CNC(=O)[C@H](CC(C)C)NC(=O)CNC(=O)[C@H](CO)NC(=O)[C@H](CCC(N)=O)NC(=O)[C@H](C)NC(=O)CNC1=O [ANP, atrial natriuretic peptide]

cGMP production by proANP treated in serum for 180 minutes (GC-A; proANP 10^−8 M, treated in serum 180 minutes): decreased
B1: proANP (protein, listed as Homo sapiens)
chain: NPMYNAVSNADLMDFKNLLDHLEEKMPLEDEVVPPQVLSEPNEEAGAALSPLPEVPPWTGEVSPAQRDGGALGRGPWDSSDRSALLKSKLRALLTAPRSLRRSSCFGGRMDRIGAQSGLGCNSFRY
modifications: His tag in serum
notes: 126 amino acid pro form of atrial natriuretic peptide
cGMP production relative to ANP ([3]; after 60 minutes): about equal | cGMP levels compared to 0 minutes ([3]; all time points): significant increases in cGMP levels | cGMP production relative to ANP ([3]; first 30 minutes): about half as much as ANP | effect on cardiac output ([1]; 667 pmol/kg intravenous): less than that of either ANP or BNP | effect on renal blood flow ([1]; 667 pmol/kg intravenous): less effect on renal blood flow | diuretic and natriuretic actions (urine volume, urinary sodium excretion) [1, 5]: strongest and longest | effect on blood pressure (BP) [1, 5]: less of an effect on BP as compared to the other two NPs | effect on heart rate ([1]; first 90 minutes, then increased by about 120 minutes): less than that of ANP or BNP | AUC for plasma cGMP (PcGMP) relative to ANP or BNP (cGMP; 667 pmol/kg intravenous): less than that for ANP or BNP | AUC for urinary cGMP excretion (UcGMP) relative to ANP or BNP (cGMP; 667 pmol/kg intravenous): twice that of ANP or BNP | PcGMP AUC (cGMP): 6110.5 pmol·min/mL | PcGMP Cmax (cGMP): 93.8 pmol/mL | UcGMP AUC (cGMP): 420368 pmol·min/mL | UcGMP Cmax (cGMP): 7027.8 pmol/mL | NPi AUC ([2]; NP immunoreactivity, normal canines, equimolar intravenous bolus 667 pmol/kg): 28.1 pmol·min/mL | AUC for NP immunoreactivity relative to ANP [2, 6]: twice that of ANP | decline of plasma immunoreactivity after the peak [2, 6]: decreased more slowly than ANP or BNP | time of peak plasma immunoreactivity after injection [2, 6]: 2 min | half-life ([2]; normal canines, equimolar intravenous bolus 667 pmol/kg): 20.7 min | half-life relative to ANP ([2]; normal canines, pharmacokinetic analysis): about 4 times | Cmax ([2]; read-out: NPi Cmax, NP immunoreactivity, normal canines, equimolar intravenous bolus 667 pmol/kg): 0.96 nM | processing of proANP in normal human serum ([4]; His-tagged proANP, 37° C., 5 minute incubation, normal serum): processed into ANP1-28 | proANP processing into ANP1-28 in HF serum compared to normals ([4]; serum from HF patients): preserved | cGMP production (GC-A; HEK293 cells overexpressing GC-A): lower than ANP but much higher than proBNP | cGMP production by proANP treated in serum for 5 minutes (GC-A; proANP 10^−8 M, treated in serum 5 minutes, versus untreated proANP): stimulated cGMP production significantly as compared to untreated proANP
